Measured values as given in article PMC1240114.

Molecular target: tFKBP*3R (UniProt P62942 2-108, F37V;M50R;E55R;T86R)
Assay: filter binding

Chain of tFKBP*3R (P62942 2-108 F37V/M50R/E55R/T86R): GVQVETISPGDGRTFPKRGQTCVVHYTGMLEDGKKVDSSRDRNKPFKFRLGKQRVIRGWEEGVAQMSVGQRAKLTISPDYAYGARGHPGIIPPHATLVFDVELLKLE

B1: s23 U74C (structured_RNA)
RNA: GGGCAUUGGAUCGCAUUGUCAUUUCAUUGUGGCGGUGCAGUCAAAUGUGAUGCUUCGUUCAGUGACGGGAGGGCUGUGAGUGGUCUGAACGUAAGC
Kd: 10.8 ± 3.8 nM
